From publication PMC8304084, “A Concerted Action of UBA5 C-Terminal Unstructured Regions Is Important for Transfer of Activated UFM1 to UFC1” (International Journal of Molecular Sciences, 2021)
Like-named read-outs stand apart in the source and are kept apart here.

Experiments:
UFC1 [1] = target: T1, UFC1 (Homo sapiens, UniProt Q9Y3C8); experiment: NMR titration with UFC1; format: binding; details: [15N,1H] TROSY-HSQC, 25 °C
T1 construct: Full length UFC1, residues 1–167; modified ubiquitin tag (Ub19) with TEV site (N, cleaved yes); made in house; host or cells: E. coli T7 Express
T1 sequence (Q9Y3C8 1-167): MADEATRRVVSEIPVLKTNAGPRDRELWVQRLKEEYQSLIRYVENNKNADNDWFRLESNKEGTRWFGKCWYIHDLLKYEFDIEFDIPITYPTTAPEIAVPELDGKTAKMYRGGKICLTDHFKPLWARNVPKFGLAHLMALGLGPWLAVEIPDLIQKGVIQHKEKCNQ
Protocol: To understand the role of the UBA5 C-terminal region in coordination of the binding events reported above on the molecular level, we performed NMR titration experiments. […] It seems, that these UBA5 residues form additional interactions with UFC1.
All NMR experiments were performed at a sample temperature of 25 °C on Bruker 600, 700, 800, 900, and 950 MHz spectrometers equipped with cryogenic probes, and a 500 MHz spectrometer equipped with a room-temperature triple-resonance probe. All NMR spectra were analyzed with the Sparky 3.114 software (University of California, San Francisco, USA). For NMR titration experiments, the non-labeled UBA5 peptides were titrated to 100 µM ^13C,^15N-labeled UFC1 to a final molar ratio of 1:8 (UFC1:UBA5 peptide). Conversely, 100 µM ^13C,^15N-labeled UBA5 peptides were titrated with non-labeled UFC1 to a final molar ratio 1:4 (UBA5 peptide:UFC1). 2D ^1H-^15N correlation spectra ([^15N,^1H] TROSY-HSQC) were recorded at each titration point. The same types of spectra were recorded to estimate binding of ^13C,^15N-labeled UFC1 (75 µM) to non-labeled UBA5, UBA5~UFM1 and UFM1 at 1:2 molar ratios. CSP values, Δδ, were calculated for each individual amide group using the formula Δδ = [(ΔδN/5)^2 + Δδ^2HN)]^1/2.

UFM1 = target: T2, UFM1 (Homo sapiens, UniProt P61960); experiment: Gel filtration and electrophoresis of UBA5 C250K~UFM1 conjugates with excess UFM1; format: binding; details: gel filtration, Superdex 200 10/300, 4 times molar excess of UFM1, electrophoretic analysis
T2 construct: Full length UFM1, residues 2–83; modified ubiquitin tag (Ub19) with TEV site (N, cleaved yes); made in house; host or cells: E. coli T7 Express
T2 sequence (P61960 2-83): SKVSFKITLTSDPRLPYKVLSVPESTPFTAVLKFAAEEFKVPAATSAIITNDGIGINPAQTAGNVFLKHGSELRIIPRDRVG
Source text: Figure 4 Interaction studies between full length UBA5 and UFC1 proteins. (A) Gel electrophoresis of ufmylation assays including UBA5 FL^1–404 (left plot) and UBA5 ΔR3^1–380. (B) UFC1 binding to full length UBA5 (left plot) and full length stable UBA5~UFM1 conjugate (right plot) observed by ITC experiments. […] KD values are indicated. (C) Gel-filtration profiles of the FL^1–404 C250K~UFM1 conjugates in presence of 4 times molar excess of UFM1 (red lines) and UFC1 (black lines). The peak subjected to electrophoretic analysis is indicated by an asterisk. (D) Scheme of reactions involving UBA5 in the ufmylation cascade. The structures of UBA5 AD (brown), UFM1 (cyan) and UFC1 (grey) are represented as ribbon diagrams; the UBA5 unstructured C-terminus containing regions R1 (orange), R2 (green) and R3 (violet) is shown as dashed lines. The structures were generated from PDB entry 5IAA [29]. * indicates regions of another UBA5 molecule involved in the in trans transfer of UFM1.
For stable UBA5~UFM1 conjugation, 70 µM UFM1, 20 µM FL^1–404 C250K and 1 mM ATP were added to ufmylation reaction buffer (50 mM HEPES […], 100 mM NaCl, 5 mM MgCl2). For NMR analysis, resulting complexes were concentrated and equilibrated with ITC/NMR buffer. To analyze complex formation by ufmylation assay 300 µL of sample were loaded onto a Superdex 200 10/300 column (GE Healthcare, München, Germany).

UFC1 [2] = target: T1, UFC1; experiment: ITC, UBA5 constructs vs UFC1; format: binding; details: for N: ITC stoichiometry; for N / ΔG / ΔS / −T*ΔS / KA*10^−6 / Kd: UFC1 titrated to full length UBA5; for N / ΔH / KA*10^−6: ± = fitting error; for ΔG / ΔS / −T*ΔS / ΔH / KA*10^−6 / Kd: ITC, 25 °C; for ΔH: UFC1 titrated to full length UBA5 (FL^1–404 or FL^1–404 C250K~UFM1), single profile; for ΔH / Kd: 25 mM HEPES pH 7.5, 100 mM NaCl; for KA*10^−6: value is KA × 10^−6; for Kd: VP-ITC, one-site model, single ITC profile
Source text: To understand how the UBA5 C-terminus participates in the ufmylation cascade, we performed isothermal titration calorimetry (ITC) experiments, in which we titrated UBA5 C-terminal peptides (see Table 1) to the UBA5 AD, UFC1, UFM1 and representative LC3/GABARAP proteins (Figure 2A, Supplementary Figure S2A–D and Table 2).
To investigate if conjugation of UFM1 to the UBA5 catalytic cysteine (C250) affects the UFC1:UBA5 interactions, we prepared full length UBA5 C250K mutant and stably conjugated UFM1 to it as reported before for a number of ubiquitin-specific E2 enzymes. We compared the UFC1 spectra after addition of a twofold molar excess of FL^1–404 and FL^1–404 C250K~UFM1 constructs (Supplementary Figure S5C).
All proteins and peptides were expressed in E.Coli T7 Express (New England Biolabs GmbH, Frankfurt, Germany) cells in LB or M9 (to obtain ^15N- and ^13C,^15N-labeled polypeptides) media according to the protocol described in [33, 36]. For protein purification, bacterial cell pellets were resuspended in lysis buffer (50 mM Tris-HCl pH = 7.5, 100 mM NaCl, 5% glycerol, 5 mM PIC (protease inhibitor cocktail)) and lysed via sonication (TT13 Sonotrode, 40% amplitude, for 6 × 1 min with a 0.5/0.5-s pulse). Lysates were centrifuged for 45 min at 17,000× g at 4 °C. Supernatants were loaded onto a His Trap Fast Flow 5 mL column (GE Healthcare, München, Germany) equilibrated in loading buffer (50 mM Tris-HCl pH = 8.0, 250 mM NaCl, 1% glycerol, 20 mM imidazole). The column was washed with loading buffer for 5–10 CV and protein was eluted with elution buffer (50 mM Tris-HCl pH = 8, 250 mM NaCl, 1% glycerol, 400 mM imidazole). Simultaneous TEV cleavage (1 mg TEV protease was added to 100 mg peptides/proteins) and buffer exchange to loading buffer via dialysis was performed over night at 4 °C. After reverse IMAC, proteins were concentrated with conical concentrators (Millipore Merck, Darmstadt, Germany) and loaded on a Superdex 10/60 75 or 200 column (GE Healthcare, München, Germany) for further purification and equilibration with ITC/NMR buffer (25 mM HEPES pH = 7.5, 100 mM NaCl). For structural NMR spectroscopy, buffer containing 50 mM Tris-HCl pH = 7.5, 100 mM NaCl was used. Prior to NMR experiments, TCEP and protease inhibitors cocktail were added to the samples to final concentrations 1 and 5 mM, respectively. Purified peptides and protein were concentrated and stored at −80 °C. The protein and peptide concentrations were calculated from the UV absorption at 280 nm by Nanodrop spectrophotometer (Thermo Scientific, Langenselbold, Germany).
All ITC experiments were performed at 25 °C using a VP-ITC microcalorimeter (Malvern Panalytical Ltd., Malvern, UK). Peptides in concentration of ~400 µM were titrated into 20–25 µM solutions of corresponding binding partner at a stirring speed of 307 rpm. The raw data were corrected on the dilution heat of peptides obtained in independent experiment (titration of the peptide in syringe into the ITC/NMR buffer in the measuring cell). Pre-titration delay was set to 180 s, interval between titration steps was experimentally adjusted to avoid kinetic contribution to the observed heat effects and set to 200 s. A single ITC profile was collected for each type of interaction. The ITC data were analyzed based on a “one-site” binding model with MicroCal ITC software implemented in Origin 7.0.

UFC1 [3] = target: T1, UFC1; experiment: In vitro thioester formation (ufmylation) assay, UFC1~UFM1 conjugate; format: biochemical
Protocol: First, we analyzed the effect of the UBA5 C-terminus on UFM1 transfer to UFC1 with an in vitro thioester formation assay (Figure 1B–E).
Ufmylation reaction assays were adopted from work of Xie. Briefly, 70 µM UFM1, 20 µM UFC1 and 20 µM of different UBA5 constructs were mixed in reaction buffer (50 mM HEPES pH = 7.5, 100 mM NaCl, 5 mM MgCl2). After starting the reaction with addition of 1 mM ATP, the reaction mix was incubated at 22 °C for the desired time. To quench the reaction and prepare electrophoretic samples, 1 µL of the reaction mix was added to 99 µL 1x non-reducing SDS loading buffer and frozen in liquid nitrogen. Sample content was visualized by sodium dodecyl sulfate polyacrylamide gel electrophoresis (SDS-PAGE). The transfer to polyvinylidene difluoride (PVDF) membrane was performed via a Trans-Blot® Turbo™ Transfer System (Bio-Rad, München, Germany). After transfer the membrane was blocked with TBST (Tris-buffered saline with Tween20 buffer, 20 mM Tris, 150 mM NaCl and 0.1% TWEEN 20) containing 5% w/v nonfat dry milk for 1 h, followed by α-UFC1 antibody incubation over night at 4 °C (ab189251 abcam, 1:10,000 in TBST containing 5% w/v nonfat dry milk). After washing with TBST the membrane was incubated with secondary antibody (anti-rabbit-HRP) for 1 h at RT and again washed with TBST. Detection was performed by addition of ECL solution. For quantification of UFC1 ufmylation coloc2 software implemented in ImageJ was used.

UFM1, UFC1 = details: cited from earlier work
Source text: The role of this region is not understood, and no interacting proteins could be identified so far. […] Ufmylation is essential for embryonic development. The A371T mutation was described previously to be present in patients suffering from severe infantile-onset encephalopathy. […] Our ITC experiments with C-terminal UBA5 peptides containing the A371T or its phosphomimicking A371E mutations (loca ...

non-conjugated UFM1 in conjugate peak (UFM1) | N (UFC1 [2]) | ΔG (UFC1 [2]) [kcal/mol] | ΔS (UFC1 [2]) [cal mol^−1 K^−1] | −T*ΔS (UFC1 [2]) [kcal/mol] | ΔH (UFC1 [2]) [kcal/mol] | KA*10^−6 (UFC1 [2]) [M^−1] | Kd (UFC1 [2]) [nM] | UFC1 conjugated to UFM1 (UFC1~UFM1) (UFC1 [3]; within 30 min, 70 µM UFM1, 20 µM UFC1, 20 µM UBA5 construct, 1 mM ATP, 50 mM HEPES pH 7.5, 22 °C, Western blot, triplicates) | Substance | interaction with UFC1 (in words) (UFC1 [1]) | effect of UBA5 A371T mutation on UFM1 activation / transfer (UFM1, UFC1) | effect of UBA5 A371T mutation on UFM1 activation / transfer (UFM1, UFC1; listed as A371T mutation) | UFM1 transfer to UFC1, ΔR3^1–380 vs FL^1–404 (in words) (UFC1 [3]; reactions started with 25 µM ATP)
contains non-conjugated UFM1 | 1.03 ± 0.009 | -8.10 | −0.34 | 0.10 | -8.21 ± 0.01 | 0.87 ± 0.05 | 1200 | – | FL^1–404 C250K~UFM1: full length UBA5 C250K mutant with UFM1 stably conjugated to it | no significant enhancement of the UBA5:UFC1 interaction | – | – | –
– | 0.97 ± 0.009 | -8.00 | 1.26 | -0.38 | -7.62 ± 0.01 | 0.72 ± 0.04 | 1400 | ~ 90% | FL^1–404: Full length UBA5, residues 1–404 | did not observe significant CSPs (shift or disappearance of the UFC1 resonances) in comparison to the spectra of the UFC1:R3^381–404W complex | – | – | –
– | – | – | – | – | – | – | – | – | UBA5 A371T mutant: A371T mutation in the human UBA5 protein, literature | – | slightly reduced UBA5 thioester conjugation with UFM1 and reduced enzymatic activity in trans-thioesterification of UFC1 | decreases the ability of UBA5 to activate UFM1, to transfer the activated UFM1 to UFC1 and to mediate UFBP1~UFM1 formation | –
– | – | – | – | – | – | – | – | – | ΔR3^1–380: UBA5 with deleted R3 region, residues 1–380 | did not interact with UFC1 | – | – | significantly slowed down UFM1 transfer to UFC1
